Relative amount of GABABR detected after isolation with the GFP antibody (FL-KCC2 = 100%) data for one substance are collected here from paper PMC5452337.

Holding throughout (experiment): co-IP; lysates of CHO GABABR1b/R2 cells transiently expressing KCC2-GFP constructs or GFP, CHAPS buffer; anti-GFP as the precipitating antibody; blots probed for GABABR1 (quantified against FL-KCC2 = 100%) or transferrin receptor
The target of test [1] is KCC2 deletion mutant NTD + TMD fused to GFP (rat).
Test [2] concerns the target KCC2 deletion mutant TMD + CTD fused to GFP (rat).
Test [3] deals with KCC2 transmembrane domain (TMD) fused to GFP (rat).
KCC2 transmembrane domain (TMD) fused to GFP (rat), sequence (Q63633 97-640): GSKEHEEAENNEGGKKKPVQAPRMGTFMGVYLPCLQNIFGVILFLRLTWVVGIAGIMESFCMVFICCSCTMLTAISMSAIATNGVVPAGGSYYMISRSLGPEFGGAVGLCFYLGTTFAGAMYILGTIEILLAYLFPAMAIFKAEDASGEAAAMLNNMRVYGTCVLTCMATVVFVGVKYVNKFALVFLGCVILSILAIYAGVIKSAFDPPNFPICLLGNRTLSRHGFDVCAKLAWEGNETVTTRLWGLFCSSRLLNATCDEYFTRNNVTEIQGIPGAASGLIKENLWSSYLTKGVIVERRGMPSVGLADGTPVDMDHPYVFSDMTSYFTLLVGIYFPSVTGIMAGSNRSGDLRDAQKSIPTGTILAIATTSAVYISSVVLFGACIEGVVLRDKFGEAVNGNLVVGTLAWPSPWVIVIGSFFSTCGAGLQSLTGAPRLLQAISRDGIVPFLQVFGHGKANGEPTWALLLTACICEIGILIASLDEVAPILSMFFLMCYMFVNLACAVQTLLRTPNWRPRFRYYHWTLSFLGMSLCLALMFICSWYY

KCC2 deletion mutant TMD + CTD fused to GFP (rat), sequence (Q63633 whole entry, stated change not applied, the tested form may be a part): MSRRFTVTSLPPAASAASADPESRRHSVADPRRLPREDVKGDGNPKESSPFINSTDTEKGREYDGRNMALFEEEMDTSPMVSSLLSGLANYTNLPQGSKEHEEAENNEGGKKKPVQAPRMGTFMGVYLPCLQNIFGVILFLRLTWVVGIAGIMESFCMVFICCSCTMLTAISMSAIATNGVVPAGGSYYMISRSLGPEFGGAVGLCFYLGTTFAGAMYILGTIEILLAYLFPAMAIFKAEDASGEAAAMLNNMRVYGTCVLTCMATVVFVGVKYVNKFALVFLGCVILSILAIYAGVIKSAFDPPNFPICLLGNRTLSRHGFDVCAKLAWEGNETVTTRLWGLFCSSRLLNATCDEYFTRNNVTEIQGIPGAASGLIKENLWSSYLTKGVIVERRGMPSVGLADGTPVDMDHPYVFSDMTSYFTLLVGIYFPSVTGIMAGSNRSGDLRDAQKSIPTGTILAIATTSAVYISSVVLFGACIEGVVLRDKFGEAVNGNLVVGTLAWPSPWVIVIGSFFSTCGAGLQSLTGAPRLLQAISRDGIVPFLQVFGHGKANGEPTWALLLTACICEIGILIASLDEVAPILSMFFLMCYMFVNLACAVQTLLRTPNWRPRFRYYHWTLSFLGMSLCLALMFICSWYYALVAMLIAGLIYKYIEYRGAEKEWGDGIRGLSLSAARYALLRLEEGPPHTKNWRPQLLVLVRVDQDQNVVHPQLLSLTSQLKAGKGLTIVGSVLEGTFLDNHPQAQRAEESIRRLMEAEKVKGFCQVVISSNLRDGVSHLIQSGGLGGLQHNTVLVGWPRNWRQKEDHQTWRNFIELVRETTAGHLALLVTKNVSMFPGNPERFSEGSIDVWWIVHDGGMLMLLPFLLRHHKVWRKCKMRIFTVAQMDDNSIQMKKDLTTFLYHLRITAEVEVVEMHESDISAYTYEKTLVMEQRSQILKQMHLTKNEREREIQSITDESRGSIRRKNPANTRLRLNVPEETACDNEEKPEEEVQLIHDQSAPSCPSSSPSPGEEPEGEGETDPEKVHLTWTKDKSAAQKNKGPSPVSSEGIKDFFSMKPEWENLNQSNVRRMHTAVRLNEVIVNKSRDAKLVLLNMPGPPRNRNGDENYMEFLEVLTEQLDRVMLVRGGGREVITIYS
KCC2 deletion mutant NTD + TMD fused to GFP (rat), sequence (Q63633 1-640, stated change not applied): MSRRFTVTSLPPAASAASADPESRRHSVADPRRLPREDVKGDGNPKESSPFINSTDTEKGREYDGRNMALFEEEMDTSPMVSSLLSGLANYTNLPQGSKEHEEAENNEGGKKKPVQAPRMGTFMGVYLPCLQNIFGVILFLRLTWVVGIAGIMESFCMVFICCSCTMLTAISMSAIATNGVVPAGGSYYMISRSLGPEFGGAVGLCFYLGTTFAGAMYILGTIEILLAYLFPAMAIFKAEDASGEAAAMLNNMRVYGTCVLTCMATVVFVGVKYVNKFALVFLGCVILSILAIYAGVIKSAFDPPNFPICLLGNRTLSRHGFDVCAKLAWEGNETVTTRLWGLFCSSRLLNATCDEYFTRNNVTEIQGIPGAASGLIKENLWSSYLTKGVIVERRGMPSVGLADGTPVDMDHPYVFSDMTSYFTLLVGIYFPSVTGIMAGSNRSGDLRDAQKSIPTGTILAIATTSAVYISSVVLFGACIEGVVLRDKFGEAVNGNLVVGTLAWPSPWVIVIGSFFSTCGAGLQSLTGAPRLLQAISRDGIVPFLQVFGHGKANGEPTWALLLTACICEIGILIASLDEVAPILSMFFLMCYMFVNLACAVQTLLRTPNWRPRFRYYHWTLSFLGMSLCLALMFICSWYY

With “GABAB receptor of rat GABABR1b and GABABR2, stably expressed in CHO cells (from UniProt Q9Z0U4-2 20-960; O88871 41-940) (complex)”, the relative amount of GABABR detected after isolation with the GFP antibody (FL-KCC2 = 100%) in test [1] is 68 % of FL-KCC2; in test [2] it was 36 % of FL-KCC2; in test [3], 76 % of FL-KCC2.
